In the DeepSol protein solubility set:

test: soluble on expression in E. coli; label from the status in PepcDB or PDB records

| Sequence | soluble on expression in E. coli |
| --- | --- |
| MGSDKIHHHHHHMSTPGSTPPPSVADQPHPLPLANGHPISGATADAAAQWLTLLMSDEMTDSDYQCWQQWRAAHPDHERAWQHIEAVTARFRELPSTAAYKSLSPLTNPVSAGKPGSPGRRKAMGTLLWLGTAGVGSMLVSRTQIWQQTVADYRTGTGEQRAIYLADGTHIMLNTYSAIDVAFDAQHRTIRLITGDILITTHPVHTPISDPRPFIVETAEGRIRALGTRFTVSQRKGRTHVAVLEHAVEVTPAAAPDRQYILPAGQQLSFTRHTLNNATTLDKQTTGWTQGQIIADNIRLGDFITDLGRYRTGLLRCDPAVAELRLSGVFPLDDTDRILETLPSVLPVRVRLRTRYWVIVEAAS | not soluble |
| MRLKDKAVLITGAAHGIGRATLELFAKEGARLVACDIEEGPLREAAEAVGAHPVVMDVADPASVERGFAEALAHLGRLDGVVHYAGITRDNFHWKMPLEDWELVLRVNLTGSFLVAKAASEAMREKNPGSIVLTASRVYLGNLGQANYAASMAGVVGLTRTLALELGRWGIRVNTLAPGFIETRMTAKVPEKVREKAIAATPLGRAGKPLEVAYAALFLLSDESSFITGQVLFVDGGRTIGAAPA | soluble |
| GPGSMMILPHAEEVELRRGSSPATITSTTGRVNRVAVDTSSEENQEAVSQDRLEGRDDAGKSPTTSASPGTSSKKDRFQATSAQVKGALSTPRRAVYEFHDMFGFLVTEEEKAAEDYERRNNGYSRAYLDKWEYMMTHWANVRQDTLKRYCRRGVPQPKRCAVWQHLLQSWGMKDRFPGVYMRLHSQPLDSKDLADVIARDLDRTFPTNRLFSVKSGQGQQILRRLLHAYANYNPGVGYCQGMGFLAATLILQVEEEEDAFWAFVAVMENAKYNMKAVFAPSFPQLQCAFYVFEALMRQKMPKLYAHLHDRHPIPPSFYAVHWFMTIFTYHFNFGLVSRIWDMFFCEGWKPVYRIALALLKIEERRLLSLNTDTELLLVLKGIQESKRPVELLKTALKIRFKSAYMNQLMAEFNAQPS | not soluble |
| MINNDLLRRISNIFDLTDETILTTFALSQCEISAEQLTNFFKEKDDTAYQPLEDVQFASFLNGLIIAKRGPSDGPERPVEEELTNNMIFNKVKIALSLKAEEVIATLELADLSLGKYELSAFFRNVNNKHYKDCSDEVLSAFLKGLKIKSK | not soluble |
| AVQRAKEVLEEISCYPENNDAKELKRILTQPHFMALLQTHDVVAHEVYSD | soluble |
| MAHHHHHHMQICPEGKGDSAASELLRFSDADGAVVREVLLDALCRVVPASLFSDAAALENVDEAELCVLLRYATEIQEQNAAFFQVMGGSEVMSRPERAATTEGRRVLQHFTRLVLARCRHLLHHHDGPPPTLLSGDAENIPFVDLQLYADHNHPEVRVHQKIGRANAQGLRYAGLQSTASTTMAELLSRLESANQRMAAGARGLRCDLLRHVAQKAALGKSKLTLEDVTRALPLLAAQMGKTSEQQVKSTYERLLTAMSTTIAVALQQPQKPACILALLEGLAGCHYTPSSYKLLEMVMLRMMMRGAFTLSDAGRCLIAMLQVVGPQKVSQSVKQAIAMRVVAAVDARSDSTAADVLAVLRALRYSCYSSFASLVCLVSKSPLMGNTANWQPSEHVRYAVLLAAAAAALETEANSELGIAVSTTARERLLLGLSPTHPPSAVPPHSPACVGEDAYQECVTACAALDVSPVPPALTAWAHADIDARPVHSLCTPALAVSTMEALEAMSLAPSRWYTAYVNYLTDTLEQMQRRPLLEDDAETAVRCLFLQRAPGAVTRLASVLLEHEVDRLDQTLTRGAVVRDDARAPPVCTFQQRSLERQTSEGETETRLLRYCAALQHASREMLSTRSAEV | not soluble |
| GSHMGHIIDISKWNGDINWSIAKQHIDFIIARVQDGSNYVDPLYKGYVQAMKQHGIPFGNYAFCRFVSIADAKKEAQDFWNRGDKSATVWVADVEVKTMNDMRAGTQAFIDELYRLGAKKVGLYVGHHMYTPFGMANVKSDFVWIPRYGGNKPAYPCDIWQYTETGNVPGIGKCDLNSLIGNKSLSWFTESA | soluble |
| MGSDKIHHHHHHMNARKGGVDRSRAEAGMADTLFFFHNPKAGGTSVEDALRSLFPDERCCPRIENDATEHAQRAGRYAGFRGYDFYAGHYGFDIYQAVGSGMAAATNFRWPIDRIVSVYRYFHHIVELSDSQVRDPRFRAVRLAKTLCMDDFVTCDDPAVQLHTHDHHFRQLTGSGWSMANEQDLSAAIRLINQMVWFYVCEHPHESLAWAEEAFCRALPEIPRLNITRPDSASETGLSARACRQLILQNERDIVLYQYALERLIAQVTHEPSRLVA | not soluble |
| TTPIVHLKGDANTLKCLRYRFKKHCTLYTAVSSTWHWTGHNVKHKSAIVTLTYDSEWQRDQFLSQVKIPKTITVSTGFMSIGGGTGGGSGGGS | soluble |
| MSLKTERILLPVDGSESSYRAAYCAAQAAQLCGAEVLLLHCVDQTEQNGEAPLVDTTLAEDTTTNRHPKQADALGMATANDLIGPVRDILEDHGIRYMERIVEGEPATCIPRVAQNTRCGLIVMGRSGKTPSGRLPVGSVTGRVVGAAHCPVIVAEGHHHHHH | soluble |
| MEESKTPHVAIIPSPGMGHLIPLVEFAKRLVHLHGLTVTFVIAGEGPPSKAQRTVLDSLPSSISSVFLPPVDLTDLSSSTRIESRISLTVTRSNPELRKVFDSFVEGGRLPTALVVDLFGTDAFDVAVEFHVPPYIFYPTTANVLSFFLHLPKLDETVSCEFRELTEPLMLPGCVPVAGKDFLDPAQDRKDDAYKWLLHNTKRYKEAEGILVNTFFELEPNAIKALQEPGLDKPPVYPVGPLVNIGKQEAKQTEESECLKWLDNQPLGSVLYVSFGSGGTLTCEQLNELALGLADSEQRFLWVIRSPSGIANSSYFDSHSQTDPLTFLPPGFLERTKKRGFVIPFWAPQAQVLAHPSTGGFLTHCGWNSTLESVVSGIPLIAWPLYAEQKMNAVLLSEDIRAALRPRAGDDGLVRREEVARVVKGLMEGEEGKGVRNKMKELKEAACRVLKDDGTSTKALSLVALKWKAHKKELEQNGNH | soluble |
| MRNIQIALTKGRLEKHVIPLFEQIGIDCSELKNKGRKLVFQSKNTDISFILVKAVDVATYVEHGVADIGVVGKDILMENEKDIYEMLDLGVGVCKFCVASIPTYNPKSYRKKCIATKYPHITSNYFHNKGEDVEIIKIEGSVEIAPILGLADAIVDIVETGKTLQENGLIVFEEMYSISARMIVNKAALKTKKDEIFSIINMMEQEILSGK | not soluble |
| MARPIATHDNTFTKAYLQQHCGDLLSFDGQGDLSGWLDDVLTGAGRLNESMASNTKPVSPYLILTQLLTHDTLTVSAVQESLSRKRVALGEPMVSTRYARYVYATVVSASKSVQYHASKAGS | not soluble |
| MRLFFQHFLLFYAASAYNVSVNTNRSFLFGDVLEPLCSINVTGQNLTRSELIELFHKWEKYTSSQISSSSSISDYRKAMPCFPGPNLNLTSSNSDMIPQYPNCETFVNISKTTFGEANDLLEEVKKVRGVEQMDVSLKSVINSLSSRLQNLIDYLPDGATKNKTQERLSTLIEIGNQKLPETLRNSTRNQPPTQSTKSEFNPFELLSCFNISMMKTATVSGQTIGSIACSKFKLCSFSAVTSNPCLSNLRITEAQYDSVVNKTIAELIGEKLGGEQVQKKLGSAIGQFFGEHPRSKRTPKPRCENCTEEEYEDVTPLSDQVKMDGREELEESDDRSSGVESDESSGEVIDESYGKIDELDQEMSKRSTDSRKMSHEEITQAKIAKIRESIIDQLLTKTDDPDNSTDFQPTKRSAALEASQDNFKEALDNFRTEHIEDMTEGSGQESDRPTDSTKLYGSTQSPSEIIRPSIRTLNMETESSPVDFIENMSPISDSNDMDSSTVPNVAKKNNNFEKDLDAFRTVNNGSEKLNSSMFQELQTVLNLKLNSTMLEYAASFANISESLPKMSGEFTVSQFLQKMDINDWPTLKHLLNSMQSVFGNLPGFSQISNFIENLSSSGLDLKSVLKMIPAMNSSGTSLHKDAVLDLLNSFKSKISSSDTPKSPALEAAIQKISEASTLPTLLQNDLNSNDSSISDALNILKSNPLLSSLKI | soluble |
| MGSDKIHHHHHHMLLTPDDLKACEVELARRSLADFARMAWPVLEPATPLKWGWALDAICEHLEAVSRGESKRLLMNVPPGSMKSLLTGVIWPAYEWGPMDHAEMRFLGTAHKQDLAVRDNLKCRRLIQSQWYQERWPVVLTSDQNAKTKFENARTGFREAMAFESMTGSRGDRVILDDPHSVDDANSAAKLASGVTTFREALPSRVNNDQSAIVIVMQRLNEADVSAVAIDLGYDHLCIPMRYEPGRSKWVYGSGDPRKEEGELMFPERFPEEQVSELEKTMGSYAVAGQLQQRPAPRGGGIIKTAWFRSYRELPALEWRQIHADTAQKTGEENDYSVFQCWGRTTTGQAVLIDQIRGKWEAPDLLTQARAFWLKHKSIPGPVLRAMKVEDKVSGTGLIQTLRREGVAVIPVQRNKDKISRAYDAAAFIESGNVLLPEWADWLDGFTNEAATFPSGAHDDQLDPMFDAIHDVQFGMTVSAAVTRPIPRSVTAFNKR | not soluble |
| MGSDKIHHHHHHMSSKRLVIVGGGITGLAAAYYAERAFPDLNITLLEAGERLGGKVATYREDGFTIERGPDSYVARKHILTDLIEAIGLGEKLVRNNTSQAFILDTGGLHPIPKGAVMGIPTDLDLFRQTTLLTEEEKQEVADLLLHPSDSLRIPEQDIPLGEYLRPRLGDALVEKLIEPLLSGIYAGNIDQMSTFATYPQFVANEQKAGSLFEGMRLMRPLDQLPQTPQTTIKATGQFLSLETGLESLIERLEEVLERSEIRLETPLLAISREDGRYRLKTDHGPEYADYVLLTIPHPQVVQLLPDAHLPELEQLTTHSTATVTMIFDQQQSLPIEGTGFVVNRRAPYSITACTAIDQKWNHSAPDHTVLRAFVGRPGNDHLVHESDEVLQQAVLQDLEKICGRTLEPKQVIISRLMDGLPAYTVGHADRIQRVREEVLAQYPGIYLAGLAYDGVGLPDCVASAKTMIESIELEQSHTDESVNET | not soluble |
| MGSDKIHHHHHHMQREKVDVLVIGAGPAGTVAASLVNKSGFKVKIVEKQKFPRFVIGESLLPRCMEHLDEAGFLDAVKAQGFQQKFGAKFVRGKEIADFNFSDQFSNGWNWTWQVPRGNFDKTLADEAARQGVDVEYEVGVTDIKFFGTDSVTTIEDINGNKREIEARFIIDASGYGRVIPRMFGLDKPSGFESRRTLFTHIKDVKRPVAAEMEGNRITAVVHKPKVWIWVIPFSNGNTSVGFVGEPSYFYYYTGTPEERMRAMIANEGHIAERFKSEEFLFEPRTIEGYAISASKLYGDGFVLTGNATEFLDPIFSSGATFAMESGSKGGKLAVQFLKGEEVNWEKDFVEHMMQGIDTFRSFVTGWYDGTLHAVFFAKNPDPDHKRMICSVLAGYVWDKNNPFVKKHNTILKTLAKVIQMGEEA | not soluble |
| MSLTADTKRPLTLRDVSEASGVSEMTVSRVLRNRGDVSDATRARVLAAAKELGYVPNKIAGALASNRVNLVAVIIPSLSNMVFPEVLTGINQVLEDTELQPVVGVTDYLPEKEEKVLYEMLSWRPSGVIIAGLEHSEAARAMLDAAGIPVVEIMDSDGKPVDAMVGISHRRAGREMAQAILKAGYRRIGFMGTKMPLDYRARKRFEGFTEVLGKNGVEIEDREFYSGGSALAKGREMTQAMLERSPDLDFLYYSNDMIAAGGLLYLLEQGIDIPGQIGLAGFNNVELLQGLPRKLATMDACRLEIGRKAAEIIAKRLEDPEAEIETRITLEPKISYGDTLKREGHHHHHH | soluble |
